Read-outs that look alike come from different tables or passages of the source. Where no end group is shown, it is not given here. [ ]: non-standard residue; d: D form. Ahx = NCCCCCC(=O)O
Columns and labels:
Type in all cases: binding
Abeta 1-40 monomer = biological target: T1, Abeta 1-40 monomer (Homo sapiens, UniProt P05067); test: Globulomer capture assay in CSF (Example 6): Abeta 1-40 noise; conditions: for 40, 1 ng/ml average reading: Abeta 1-40 signal (noise), CSF samples; for background monomeric Abeta capture (noise): CSF
T1 construct: Abeta 1-40 monomer capture level; from tissue; host or cells: cerebrospinal fluid (matrix of the assay)
Method: (§1) A series of new potential aggregate-specific binding reagents were designed as shown below and conjugated onto magnetic Dynal M270 beads as described in Example 2. Typically 7-12 nmol of ligand (each candidate aggregate-specific binding reagent) was coated onto 1 mg of beads.
(§2) Aliquots of the beads (typically 3 ul) were added to wells of a 96 well plate, followed by sample (with or without Abeta 1-42 globulomer (an Abeta42 oligomer model) spiked in 80:20 CSF:TBSTT, typically 125 ul). The plate was sealed and incubated for 1 hour at 37° C. with shaking. The plate was washed with aqueous solutions of detergent (typically polyethylene glycol sorbitan monolaurate and n-tetradecyl-N,N-dimethyl-3-ammonio-1-propanesulfonate) to remove ubound material and the residual buffer removed. A denaturing solution (typically 0.1-0.15 N NaOH) was added to each well and the plate heated to 80° C. for 30 min with shaking. After cooling the plate to room temperature, a neutralizing buffer (typically 0.12-0.18 M NaH2PO3 in 0.4% TWEEN20,) was added and the plate was shaken briefly at room temperature. The bead eluate was analyzed using either an Aβ42-specific ELISA or the MSD® 96-Well MULTI-SPOT® Human/Rodent [4G8] Abeta Triplex Ultra-Sensitive Assay from Meso Scale Discovery (Gaithersburg, Md.). For the Aβ42-specific assay, the samples were eluted from the beads and a detection antibody (4G8 HRP) was added to a plate bearing the Aβ42-specific antibody 12F4. The plate was incubated for 1 hour, washed, the substrate was added (SuperSignal West Femto Maximum Sensitivity Substrate from Thermo Fisher, Rockville, Md.), and the luminescence was measured. The MSD plate assay was performed in a similar fashion, according to the manufacturer's protocol.
(§3) In this experiment the preferred number of charges within a given scaffold was identified. An Ala/Lys peptide framework was utilized, where the inclusion of each Lys residue increases the peptides' net charge by +1. Six hexapeptides with increasing charge (+1→+6), AAAKAA, AAKKAA, AAKKKA, AKKKKA, AKKKKK, and KKKKKK, were prepared and conjugated on the beads. The ability of these beads to capture Abeta 1-42 globulomer spiked at 1 ng/mL into CSF was tested, and the result is shown in FIG. 25. The globulomer capture level (“42 1 ng/ml” or the closed bars) was compared to the background signal of Abeta 1-42 detected in the unspiked CSF (“42 0 ng/ml”) and the background signal of Abeta 1-40 detected in unspiked CSF (“40 0 ng/ml”) or CSF spiked with AB42 oligomers “40 1 ng/ml”. The charge density, as conjugated to the magnetic beads, of each reagent evaluated in this experiment is shown below in Table 8.

Abeta 1-42 globulomer = biological target: T2, Abeta 1-42 globulomer (Homo sapiens, UniProt P05067); test: Globulomer capture assay in CSF (Example 6); conditions: for 42:40 (signal:noise ratio): 1 ng/ml average reading, ratio of 42 to 40; for 42, 1 ng/ml average reading: Abeta 1-42 globulomer spiked at 1 ng/mL into CSF; for globulomer capture: Abeta42 globulomer spiked into CSF, reagents on beads
T2 construct: beta amyloid (1-42) was monomerized with incubation in hexafluoroisopropanol
Method: as §1, §2, §3

normal CSF Aβ42 = biological target: T3, normal CSF Aβ42 (Homo sapiens, UniProt P05067); test: NMPA with detergent washing: background from unspiked CSF, Abeta42; conditions: CSF; PSR1 beads treated with detergent post capture
T3 construct: reduced the detection of normal CSF Aβ42 to the background levels; from tissue; host or cells: pooled normal cerebrospinal fluid
Method: Second, two neutral detergents, polyethylene glycol sorbitan monolaurate (available as TWEEN 20 from Sigma-Aldrich, St. Louis, Mo.) and n-tetradecyl-N,N-dimethyl-3-ammonio-1-propanesulfonate (available as ZWITTERGENT 3-14 from EMI) Chemicals, Gibbstown, N.J.) were used to treat the globulomer-spiked CSF samples that had been contacted with PSR1 beads. For each assay, a mixture of 30 μl of PSR1 beads (coated at about 7-12 nmol PSR1 ligand/mg DYNAL beads, which were used in this example and in the following examples unless otherwise stated) and 70 μl of 1×TBSTT was immediately pipetted into each well on the pulldown plate. The liquid was removed on a magnetic separator. Fifty micro liters of 5×TBSTT was added to each well. The beads were suspended by briefly shaking at 750 rpm. Next […] of TBSTT or CSF sample without globulomer was added to each well. The pulldown plate was sealed and incubated at 37° C. for 1 hour with shaking at 500 rpm. After incubation, the beads were washed 8 times with TBST on the plate washer. After the plate wash, residual TBST buffer was removed from the beads on the magnetic separator. The beads were then incubated with 100 μl of either TBS, 1% Tween20 or 1% Zwittergent 3-14 for 30 minutes at room temperature at 750 rpm, (followed by an additional 8 washes with TBST on the plate washer. After removing residual TBST on the magnetic separator, 20 μl of denaturing solution, typically 0.1-0.15 N NaOH, was added to the beads. The plate was covered with an aluminum foil plate sealer and incubated at 80° C. for 30 minutes with shaking at 750 rpm. After incubation, the plate was cooled to room temperature and twenty micro liters of neutralizing solution, typically 0.12-0.18 M NaH2PO4+0.4% Tween20) was added into each well and the plate was incubated at room temperature for 5 minutes with shaking at 750 rpm. […] MSD Abeta Triplex Assay was preformed according to the manufacturer's instructions.
A summary of the assay results and calculated signal/noise is shown below in Table 17.

Abeta 42 globulomer = Abeta 42 globulomer (Homo sapiens, UniProt P05067); test: NMPA with detergent washing after PSR1 pulldown: globulomer detection
[1] = 0.5 ng/mL vs 0 ng/mL globulomer
[2] = Abeta 42 RLU at 0.5 ng/mL over average Abeta 40 RLU
[3] = CSF, PSR1 beads treated with detergent post capture

| Compound | 40, 1 ng/ml average reading (Abeta 1-40 monomer) | 42:40 (signal:noise ratio) (Abeta 1-42 globulomer) | 42, 1 ng/ml average reading (Abeta 1-42 globulomer) | globulomer capture (Abeta 1-42 globulomer) | also measured |
| --- | --- | --- | --- | --- | --- |
| DFKLNFKF | 259.5 RLUs | 2 | 515.5 RLUs | – | – |
| CCCCCCCCCCCCCC(=O)NCCC[N+](C)(C)CCCS(=O)(=O)[O-] [ASB-14, Amidosulfobetaine-14,3-[N,N-Dimethyl(3-myristoylaminopropyl)ammonio]propanesulfonate] | – | – | – | – | Abeta 42 RLU, 0 ng/mL Abeta 42 globulomer, Average (normal CSF Aβ42): 89.7 RLU; Abeta 42 RLU, 0.5 ng/mL Abeta 42 globulomer, Average (Abeta 42 globulomer): 779.3 RLU; S/N Abeta 42 globulomer-spiked/Abeta 40 (Abeta 42 globulomer): 2.0; S/N Abeta 42 globulomer-spiked/unspiked (Abeta 42 globulomer): 8.7 |
| AKKKKA | 155.5 RLUs | 2.1 | 322.5 RLUs | significantly lower globulomer capture efficiency | – |
| CCCCCCCCCCCCCCCC(=O)NCCC[N+](C)(C)CCCS(=O)(=O)[O-] [ASB-16, Amidosulfobetain-16,3-[N,N-Dimethyl-N-(3-palmitamidopropyl)ammonio]propane-1-sulfonate] | – | – | – | – | Abeta 42 RLU, 0 ng/mL Abeta 42 globulomer, Average (normal CSF Aβ42): 95.7 RLU; Abeta 42 RLU, 0.5 ng/mL Abeta 42 globulomer, Average (Abeta 42 globulomer): 788.7 RLU; S/N Abeta 42 globulomer-spiked/Abeta 40 (Abeta 42 globulomer): 2.8; S/N Abeta 42 globulomer-spiked/unspiked (Abeta 42 globulomer): 8.2 |
| Ac-KKKFKF: acetylated KKKFKF peptide conjugated to beads with the Ahx-Ahx-Cys-NH2 linker (Ac-KKKFKF[Ahx][Ahx]C-NH2; also: conjugated to beads via the linker) | – | – | – | captured globulomer specifically | – |
| CCCCCCCC[N+](C)(C)CCCS(=O)(=O)[O-] [ZW3-08] | – | – | – | – | Abeta 42 RLU, 0 ng/mL Abeta 42 globulomer, Average (normal CSF Aβ42): 97.7 RLU; Abeta 42 RLU, 0.5 ng/mL Abeta 42 globulomer, Average (Abeta 42 globulomer): 668.7 RLU; S/N Abeta 42 globulomer-spiked/Abeta 40 (Abeta 42 globulomer): 0.9; S/N Abeta 42 globulomer-spiked/unspiked (Abeta 42 globulomer): 6.8 |
| F-fdb-F-fdb-fdb-fdb | – | – | – | more effective than the δ peptide | – |
| AKKKKK | 176 RLUs | 2.5 | 442 RLUs | – | – |
| KKFKKF | – | – | – | captured globulomers specifically | – |
| link-FKFKKK: FKFKKK peptide reagent with linker to bead at the left end (FIG. 27) (not fully specified (N-terminus); also: attached to bead through link at left end) | 198 RLUs | 4.1 | 808 RLUs | able to capture globulomers | – |
| IRYVTHQYILWP | 1011.5 RLUs | 3.2 | 3242 RLUs | efficient at capturing globulomer | background monomeric Abeta capture (noise) (Abeta 1-40 monomer): captured significant amounts of background monomeric species |
| AAKKKA | 159 RLUs | 1.6 | 247 RLUs | – | – |
| FoFooo | – | – | – | captured globulomers specifically | – |
| AAKKAA | 147 RLUs | 1.1 | 159.5 RLUs | – | – |
| KIGVVR | – | – | – | captured Abeta 1-42 globulomer at a high level that's similar to PSR1's globulomer capture level | background monomeric Abeta capture (noise) (Abeta 1-40 monomer): low levels of monomeric Abeta 1-40 noise similar to PSR1's |
| FKFNLFSG | 1327.5 RLUs | 2.4 | 3230.5 RLUs | efficient at capturing globulomer | background monomeric Abeta capture (noise) (Abeta 1-40 monomer): captured significant amounts of background monomeric species |
| CCCCCCCCc1ccc(C(=O)NCCC[N+](C)(C)CCCS(=O)(=O)[O-])cc1 [ASB-C8phn, 4-n-Octylbenzoylamido-propyl-dimethylammonio Sulfobetaine] | – | – | – | – | Abeta 42 RLU, 0 ng/mL Abeta 42 globulomer, Average (normal CSF Aβ42): 100.7 RLU; Abeta 42 RLU, 0.5 ng/mL Abeta 42 globulomer, Average (Abeta 42 globulomer): 936.3 RLU; S/N Abeta 42 globulomer-spiked/Abeta 40 (Abeta 42 globulomer): 1.4; S/N Abeta 42 globulomer-spiked/unspiked (Abeta 42 globulomer): 9.3 |
| KKKFKF-link: KKKFKF peptide reagent with linker to bead at the right end (FIG. 27) (not fully specified (C-terminus); also: attached to bead through link at right end) | 191.5 RLUs | 3.9 | 748 RLUs | able to capture globulomers | – |
| AAAKAA | 134.5 RLUs | 0.8 | 113.5 RLUs | – | – |
| ANFFAHSS | 543 RLUs | 1.8 | 994.5 RLUs | – | – |
| FKFKKK-link: FKFKKK peptide reagent with linker to bead at the right end; charge closest to the beads (FIG. 27) (not fully specified (C-terminus); printed as FKFKKK-link; also: attached to bead through link at right end) | 348 RLUs | 5.7 | 1995 RLUs | significantly better than the remainder of the beads | – |
| FKFSLFSG | 2011 RLUs | 1.5 | 3078.5 RLUs | efficient at capturing globulomer | background monomeric Abeta capture (noise) (Abeta 1-40 monomer): captured significant amounts of background monomeric species |
| KFKKKF | – | – | – | captured globulomers specifically | – |
| n-Dodecyl-N,N-dimethyl-3-ammonio-1-propanesulfonate [ZW3-12] | – | – | – | – | Abeta 42 RLU, 0 ng/mL Abeta 42 globulomer, Average (normal CSF Aβ42): 90.7 RLU; S/N Abeta 42 globulomer-spiked/unspiked (Abeta 42 globulomer; [1]): 7.1; S/N Abeta 42 globulomer-spiked/Abeta 40 (Abeta 42 globulomer; [2]): 1.4; Abeta 42 RLU, 0.5 ng/mL Abeta 42 globulomer, Average (Abeta 42 globulomer; [3]): 642.0 RLU |
| CCCCCCCCCCCC[N+](C)(C)CC(=O)[O-] [Empigen, N,N-Dimethyl-N-dodecylglycine betaine] | – | – | – | – | Abeta 42 RLU, 0 ng/mL Abeta 42 globulomer, Average (normal CSF Aβ42): 76.7 RLU; S/N Abeta 42 globulomer-spiked/unspiked (Abeta 42 globulomer; [1]): 8.7; S/N Abeta 42 globulomer-spiked/Abeta 40 (Abeta 42 globulomer; [2]): 2.6; Abeta 42 RLU, 0.5 ng/mL Abeta 42 globulomer, Average (Abeta 42 globulomer; [3]): 670.3 RLU |

Source: US20130109581A1, “POSITIVELY CHARGED SPECIES AS BINDING REAGENTS IN THE SEPARATION OF PROTEIN AGGREGATES FROM MONOMERS” (priority 2009, published 2013)
